Measured values published in US7119182B1 (The Regents of the University of California, priority 1991, dated 2006).
Changes are numbered by the printed parent chain. pIC50: −log10 of the molar value. Square brackets hold non-standard residues; d marks the D form. Peptide text beside a SMILES is read from it. Cha = N[C@@H](CC1CCCCC1)C(=O)O; Mpa = O=C(O)CCS

What was measured:
washed human platelets [1] = target: T1, washed human platelets (Homo sapiens, UniProt P25116); assay: Platelet ATP secretion in response to agonist peptide; type: cell-based; conditions: for Platelet ATP secretion activity of control peptides: concentrations as high as 200 μM (not shown)
T1 sequence (P25116 42-425): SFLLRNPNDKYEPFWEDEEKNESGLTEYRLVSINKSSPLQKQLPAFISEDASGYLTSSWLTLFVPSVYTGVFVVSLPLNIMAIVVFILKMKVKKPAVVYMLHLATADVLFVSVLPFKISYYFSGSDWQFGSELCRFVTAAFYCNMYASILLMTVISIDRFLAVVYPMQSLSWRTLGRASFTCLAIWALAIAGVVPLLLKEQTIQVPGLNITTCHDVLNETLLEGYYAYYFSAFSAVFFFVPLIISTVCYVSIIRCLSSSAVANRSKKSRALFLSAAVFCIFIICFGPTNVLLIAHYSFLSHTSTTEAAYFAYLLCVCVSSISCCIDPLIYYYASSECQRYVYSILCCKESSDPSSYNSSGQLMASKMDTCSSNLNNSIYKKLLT
Protocol: (§1) About 20 μl Chromolume® reagent (Chronolog Corporation, Havertown, Pa.) is added. In addition to measuring aggregation, ATP secretion is assessed. […] Platelet ATP secretion is measured in a lumiaggregometer as luminescence signal. […] Preincubation is not necessary for testing agonists or antagonists which interact directly with the receptor.
Washed human platelets were prepared as described by Baenzinger, N. G., Meth Enz (1974) 31:149–155; and Charo, I. F., et al., J Clin Invest (1977) 63:866–873. Agonist-induced responses were assessed as described above.
Platelet ATP secretion in response to the indicated final concentrations of “new amino-terminal” peptide was also followed by lumiaggregometry, and the results are shown in FIG. 4.
The data shown in FIG. 4 are raw tracings representative of aggregation or secretion responses obtained in triplicate for each agonist concentration, and are representative of results obtained in more than five separate experiments.

washed human platelets [2] = target: T1, washed human platelets; conditions: for Platelet aggregation activity of control peptides: concentrations as high as 200 μM (not shown)
uninjected oocytes = assay: Agonist activity on uninjected oocytes; type: cell-based, Xenopus laevis; conditions: uninjected oocytes (not shown)
Protocol: (§2) Briefly, intracellular calcium pools are labeled by incubating groups of 30 oocytes in 300 μl calcium-free MBSH containing 50 μCi ^45CaCl2 (10–40 mCi/mg Ca; Amersham) for 4 hours at RT. The labeled oocytes are washed, then incubated in MBSH II without antibiotics for 90 minutes. Groups of 5 oocytes are selected and placed in individual wells in a 24-well tissue culture plate (Falcon 3047) containing 0.5 ml/well MBSH II without antibiotics. This medium is removed and replaced with fresh medium every 10 minutes; the harvested medium is analyzed by scintillation counting to determine ^45Ca released by the oocytes during each 10-minute incubation. The 10-minute incubations are continued until a stable baseline of ^45Ca release per unit time is achieved. Two additional 10-minute collections are obtained, then test medium including agonist is added and agonist-induced ^45Ca release determined.
(§3) The control peptide […] (FSLL peptide) (SEQ ID NO:107) was added at 100 μM and elicited no response.
The agonist SFLL peptide has no activity on uninjected oocytes (not shown). Qualitatively identical results were obtained when agonist-induced inward current in voltage-clamped oocytes was used as an endpoint rather than agonist-induced ^45Ca release.

CCL-39 cells = assay: Mitogenic effect, tritiated thymidine incorporation in CCL-39 fibroblasts; type: cell-based, hamster; conditions: 100 μM, 48 hours, quiescent CCL-39 in serum-free medium; FIG. 5
Protocol: The fibroblast cell line CCL-39 was made quiescent in serum-free medium and then treated for 48 hours with the candidate agonist in the presence of tritiated thymidine. The incorporation of label into DNA was then determined as TCA-insoluble activity, shown as cpm in FIG. 5 using standard techniques. The data shown in the figure represent the mean of six replicate determinations plus or minus 95% confidence.

[3] = target: T2, wild-type thrombin receptor (Homo sapiens, UniProt P25116, C364S/L238V); assay: ^45Ca release by oocytes expressing wild-type thrombin receptor cRNA; type: cell-based; conditions: control peptide added at 100 μM
T2 construct: expressed in transfected cells; host or cells: Xenopus laevis oocytes microinjected with cRNA
T2 sequence (P25116 22-425 L238V/C364S): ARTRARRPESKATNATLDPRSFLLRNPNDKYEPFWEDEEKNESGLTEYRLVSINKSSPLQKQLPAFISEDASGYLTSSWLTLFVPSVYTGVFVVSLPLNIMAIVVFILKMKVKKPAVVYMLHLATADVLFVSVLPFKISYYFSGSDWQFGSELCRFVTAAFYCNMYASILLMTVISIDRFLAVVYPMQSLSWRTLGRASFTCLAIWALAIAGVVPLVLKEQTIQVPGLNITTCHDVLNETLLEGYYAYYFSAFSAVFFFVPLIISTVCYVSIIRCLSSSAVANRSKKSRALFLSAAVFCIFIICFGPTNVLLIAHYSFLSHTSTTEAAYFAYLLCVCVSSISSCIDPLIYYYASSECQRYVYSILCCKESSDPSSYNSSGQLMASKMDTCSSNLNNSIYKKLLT
Protocol: as §2, §3

thrombin receptor = target: T3, thrombin receptor (Homo sapiens, UniProt P25116); assay: Platelet activation/aggregation assays in the presence of thrombin, antagonist peptides; type: cell-based; conditions: read-out: IC50 (50% inhibition of activation or aggregation)
T3 construct: In this assay, washed human platelets are prepared by the method of Baenzinger; endogenous in cells; host or cells: washed human platelets
T3 sequence (P25116 22-425): T2 sequence (P25116 22-425 L238V/C364S) with V217L, S343C
Protocol: Platelet Aggregation: In this assay, washed human platelets are prepared by the method of Baenzinger, M. G., Meth Enzymol (1974) 31:149–155, or as described by Charo, I. F., et al., J Clin Invest (1977) 63:866–873.
Washed platelets are suspended in modified Tyrode's buffer, pH 7.4 with 2 mM magnesium and 1 mM calcium at a concentration of 10^8 platelets/ml.
as §1
Platelet Aggregation Assay Using Microtiter Plates: Thrombin- or agonist-mediated platelet aggregation as measured with washed platelets in 96-well microtiter plates was performed as described (Fratantoni, J. C. et al., Am J Clin Pathol (1990) 94:613–617).

thrombin = thrombin (Homo sapiens, UniProt P00734); assay: Inhibition of thrombin-induced platelet activation (ATP secretion) by thrombin inhibitor peptides; type: cell-based
Protocol: as §1
Three antagonist peptides of the invention […] (LDPRP peptide) (SEQ ID NO:74), F^†[…] (F^†PRP peptide) (SEQ ID NO:224) and […] (shortened LDPRP peptide) (SEQ ID NO:190), were tested for their ability to inhibit thrombin-induced platelet activation. […] The mixtures were added in a total volume of 20 μl phosphate buffered saline to 480 μl of platelets prepared and suspended as described in the description under the heading “Assays” hereinabove. Various concentrations of the candidate peptides were used.

## LLRNPNDKYEPF [reference compound]
Washed human platelets [1]
  Platelet ATP secretion activity of control peptides: without activity
Washed human platelets [2]
  Platelet aggregation activity of control peptides: without activity

## SFLLRNPNDKYEPF [“SFLL” peptide]
Uninjected oocytes
  agonist activity on uninjected oocytes: no activity
Washed human platelets [1]; peptide at 100 μM, FIG. 4
  Platelet ATP secretion compared with thrombin: comparably active to 20 μM thrombin
CCL-39 cells
  mitogenic effect (tritiated thymidine incorporation into DNA): significant stimulation of growth
Washed human platelets [2]; peptide at 100 μM, FIG. 4
  Platelet aggregation compared with thrombin: comparably active to 20 μM thrombin

## FSLLRNPNDKYEPF [FSLL peptide]
[3]
  peptide-induced ^45Ca release response: no response
Washed human platelets [1]
  Platelet ATP secretion activity of control peptides: without activity
Washed human platelets [2]
  Platelet aggregation activity of control peptides: without activity

## N=C(N)NCCC[C@H](NC(=O)[C@H](CC1CCCCC1)NC(=O)[C@H](CC1CCCCC1)NC(=O)[C@H](Cc1ccccc1)NC(=O)CCS)C(=O)N[C@@H](CC(N)=O)C(=O)N1CCC[C@H]1C(=O)N[C@@H](CC(N)=O)C(=O)N[C@@H](CC(=O)O)C(=O)N[C@@H](CCCCN)C(=O)N[C@@H](Cc1ccc(O)cc1)C(N)=O [Mpr-F(Cha) (Cha)RNPNDKY-NH2] ([Mpa]F[Cha][Cha]RNPNDKY-NH2)
Thrombin receptor
  pIC50: 4.12

## C[C@H](NC(=O)[C@@H]1CCCN1C(=O)[C@H](CC(N)=O)NC(=O)[C@H](CCCNC(=N)N)NC(=O)[C@H](CC1CCCCC1)NC(=O)[C@H](CC1CCCCC1)NC(=O)[C@H](Cc1ccccc1)NC(=O)CCS)C(=O)N[C@@H](CC(=O)O)C(=O)N[C@@H](CCCCN)C(N)=O [Mpr-F(Cha) (Cha)RNPADK-NH2] ([Mpa]F[Cha][Cha]RNPADK-NH2)
Thrombin receptor
  pIC50: 4.12

## N=C(N)NCCC[C@H](NC(=O)[C@H](CC1CCCCC1)NC(=O)[C@H](CC1CCCCC1)NC(=O)[C@H](Cc1ccccc1)NC(=O)CCS)C(=O)N[C@@H](CC(N)=O)C(=O)N1CCC[C@H]1C(=O)N[C@@H](CC(N)=O)C(=O)N[C@@H](CC(=O)O)C(N)=O [Mpr-F(Cha) (Cha)RNPND-NH2] ([Mpa]F[Cha][Cha]RNPND-NH2)
Thrombin receptor
  pIC50: 4.30

## CC(C)C[C@H](NC(=O)[C@H](CC(C)C)NC(=O)[C@H](Cc1ccccc1)NC(=O)[C@@H]1CCCN1C(=O)[C@H](CCCNC(=N)N)NC(=O)[C@@H]1CCCN1C(=O)[C@H](N)Cc1ccccc1)C(=O)N[C@@H](CCCNC(=N)N)C(=O)N[C@@H](CC(N)=O)C(=O)N1CCC[C@H]1C(=O)N[C@@H](CC(N)=O)C(=O)N[C@@H](CC(=O)O)C(=O)N[C@@H](CCCCN)C(=O)N[C@@H](Cc1ccc(O)cc1)C(=O)N[C@@H](CCC(=O)O)C(=O)N1CCC[C@H]1C(=O)N[C@@H](Cc1ccccc1)C(=O)N[C@@H](Cc1c[nH]c2ccccc12)C(=O)N[C@@H](CCC(=O)O)C(=O)N[C@@H](CC(=O)O)C(=O)N[C@@H](CCC(=O)O)C(=O)N[C@@H](CCC(=O)O)C(=O)N[C@@H](CCCCN)C(=O)N[C@@H](CC(N)=O)C(=O)N[C@@H](CCC(=O)O)C(=O)N[C@@H](CO)C(=O)O [F^†PRP peptide] (H-[dF]PRPFLLRNPNDKYEPFWEDEEKNES-OH)
thrombin
  pIC50: ~6.70
